# Results as given in US9683988B2, “Cell model and method for screening c-Fms kinase inhibitors” (Institute of Pharmacology and Toxicology Academy of …, priority 2011, dated 2017).
# Key:
# [1] = biological target: T1, c-Fms kinase in the U2OS-GFP-STAT1/CSF-1R cells (Homo sapiens, UniProt P07333); assay: Effect of the time for treating cells with hrM-CSF on GFP-STAT1 nuclear translocation; type: cell-based; settings: 200 ng/mL hrM-CSF; 0-60 minutes
# T1 construct: comprising full-length cDNA of human c-Fms; expressed in transfected cells; host or cells: human osteosarcoma U2OS cells stably expressing GFP-STAT1 (U2OS-GFP-STAT1/CSF-1R)
# T1 sequence (P07333 20-972): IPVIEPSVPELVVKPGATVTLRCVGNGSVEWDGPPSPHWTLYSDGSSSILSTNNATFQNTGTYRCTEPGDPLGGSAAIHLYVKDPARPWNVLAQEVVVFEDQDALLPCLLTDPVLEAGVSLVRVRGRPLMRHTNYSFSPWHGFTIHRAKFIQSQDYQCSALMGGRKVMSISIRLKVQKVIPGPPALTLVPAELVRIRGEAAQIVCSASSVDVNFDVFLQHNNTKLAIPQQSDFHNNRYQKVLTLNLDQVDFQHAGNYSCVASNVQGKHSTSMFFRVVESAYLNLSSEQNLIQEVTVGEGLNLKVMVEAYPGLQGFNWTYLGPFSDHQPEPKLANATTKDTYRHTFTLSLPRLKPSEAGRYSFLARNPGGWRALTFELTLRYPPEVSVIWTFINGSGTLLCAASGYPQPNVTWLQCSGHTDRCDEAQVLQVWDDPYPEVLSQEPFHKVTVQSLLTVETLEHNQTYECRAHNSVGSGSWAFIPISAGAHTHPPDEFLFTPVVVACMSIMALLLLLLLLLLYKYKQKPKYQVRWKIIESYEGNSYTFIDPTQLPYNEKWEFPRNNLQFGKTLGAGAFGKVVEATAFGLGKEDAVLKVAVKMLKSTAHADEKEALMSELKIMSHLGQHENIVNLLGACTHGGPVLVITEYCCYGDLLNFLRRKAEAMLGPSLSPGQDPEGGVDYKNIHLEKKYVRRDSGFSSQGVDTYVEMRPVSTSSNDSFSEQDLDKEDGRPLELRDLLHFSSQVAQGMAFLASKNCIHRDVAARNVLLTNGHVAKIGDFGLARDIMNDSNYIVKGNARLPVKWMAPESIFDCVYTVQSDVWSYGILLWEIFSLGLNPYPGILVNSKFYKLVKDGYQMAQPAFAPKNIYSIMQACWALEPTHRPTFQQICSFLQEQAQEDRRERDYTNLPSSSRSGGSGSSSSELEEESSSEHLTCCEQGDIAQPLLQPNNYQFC
# Experimental: The steps were as follows: • 1) using the cells prepared in the example 1 to prepare a cell suspension of 1×10^5 cells/mL, seeding the cells to a 96-well culture plate (which was black and transparent at the bottom) at 100 μL/well; and culturing the cells in an incubator at 37° C., 5% CO2, 80% humidity for 24 hours; • 2) washing the cells twice with the cell analytic liquid at 100 μL/well for each time, discarding the solution, and adding the cell analytic liquid at 50 μL/well; • 3) adding hrM-CSF diluted with the cell analytic liquid every 5 minutes, to obtain a final concentration of 200 ng/mL, setting the cell analytic liquid containing no hrM-CSF as the control, incubating the cells in an incubator at 37° C., and treating the cells with the cytokine for 0, 5, 10, 15, 20, 25, 30, 35, 40, 45, 50, 55, 60 minutes, respectively; • 4) adding the cell fixation solution preheated at 37° C. at 100 μL/well, slightly shaking the culture plate to mix the mixture uniformly, and placing the plate in dark at room temperature for 20 minutes; • 5) discarding the solution, adding 1×PBS solution that contains hoechst33342 at 200 μL/well, and placing the plate in dark at room temperature for 30 minutes; and • 6) obtaining the cell image by using In Cell Analyzer 2000, and analyzing the extent of nuclear translocation of GFP-STAT1 by using Nuclear Trafficking Analysis Module.
# [2] = biological target: T1, c-Fms kinase in the U2OS-GFP-STAT1/CSF-1R cells; assay: Dose-effect of hrM-CSF inducing GFP-STAT1 nuclear translocation in U2OS-GFP-STAT1/CSF-1R cells; type: cell-based; settings: 30 minutes
# Experimental: In order to quantitatively detect the extent of nuclear translocation of GFP-STAT1 induced by hrM-CSF, in this Example, in Cell Analyzer 1000 or In Cell Analyzer 2000 was used to obtain the cell image of GFP-STAT1 nuclear translocation. The cell image obtained was analyzed by using Nuclear Trafficking Analysis Module, wherein the translocation index represents the extent of nuclear translocation of GFP-STAT1. Translocation index equals to the ratio of the mean fluorescence intensity of nucleus to the mean fluorescence intensity of cytoplasm of the cells obtained per well. The steps were as follows: • 1) seeding the cells to a 96-well culture plate (which was black and transparent at the bottom), culturing in an incubator at 37° C., 5% CO2, 80% humidity for 24 hours; • 2) washing the cell twice with serum-free DMEM medium that contains 4500 mg/L glucose, 4 mM L-glutamine, 0.2% BSA and 10 mM HEPES (hereafter referred to as cell analytic liquid), wherein the cell analytic liquid was added at 100 μL/well for each time; after that, adding 50 μL cell analytic liquid to each well; • 3) adding the cell analytic liquid that contains hrM-CSF at 50 μL/well, […], and incubating the cells in an incubator at 37° C. for 30 minutes; • 4) fixing the cells with 8% formaldehyde diluted with 1×PBS solution and preheated at 37° C. at 100 μL/well, and placing the plate in dark at room temperature for 20 minutes; • 5) discarding the cell fixation solution, adding 1×PBS solution that contains hoechst33342 at 200 μL/well, placing the plate in dark at room temperature for 30 minutes; • 6) obtaining the cell image by using In Cell Analyzer 1000, analyzing the extent of nuclear translocation of GFP-STAT1 by using Nuclear Trafficking Analysis Module. […]
molecule,measurement,setting,value
"hrM-CSF: recombinantly expressed human M-CSF (macrophage colony stimulating factor), ligand activating c-Fms (protein, UniProt P09603 33-554, looked up) Macrophage colony-stimulating …: EEVSEYCSHMIGSGHLQSLQRLIDSQMETSCQITFEFVDQEQLKDPVCYLKKAFLLVQDIMEDTMRFRDNTPNAIAIVQLQELSLRLKSCFTKDYEEHDKACVRTFYETPLQLLEKVKNVFNETKNLLDKDWNIFSKNCNNSFAECSSQDVVTKPDCNCLYPKAIPSSDPASVSPHQPLAPSMAPVAGLTWEDSEGTEGSSLLPGEQPLHTVDPGSAKQRPPRSTCQSFEPPETPVVKDSTIGGSPQPRPSVGAFNPGMEDILDSAMGTNWVPEEASGEASEIPVPQGTELSPSRPGGGSMQTEPARPSNFLSASSPLPASAKGQQPADVTGTALPRVGPVRPTGQDWNHTPQKTDHPSALLRDPPEPGSPRISSLRPQGLSNPSTLSAQPQLSRSHSSGSVLPLGELEGRRSTRDRRSPAEPEGGPASEGAARPLPRFNSVPLTDTGHERQSEGSFSPQLQESVFHLLVPSVILVLLAVGGLLFYRWRRRSHQEPQRADSPLEQPEGSPLTQDDRQVELPV",treatment time at which extent of GFP-STAT1 nuclear translocation reached the maximum,[1],30 min
same,concentration of hrM-CSF at which extent of nuclear translocation of GFP-STAT1 reached the maximum,[2],600 ng/mL
same,concentration of hrM-CSF at which nuclear translocation of GFP-STAT1 began,[2],10 ng/mL
same,median effective concentration (EC50) of hrM-CSF for inducing GFP-STAT1 nuclear translocation,[2]; n=6,43.50 ± 3.68 ng/mL
